Data on six molecules can be found in US12269859B2, “Synthetic immune receptors and methods of use thereof” (Angeles Therapeutics, Inc., priority 2016, dated 2025).

This experiment deals with target antigen-expressing cell line. Description: Jurkat NFAT-GFP assay, coculture with target cell lines expressing the respective target antigen (summary Table 10A). Format: cell-based, human. More on the design: key: The signs +/−, +, 2+ etc. after the name of the cell lines indicate the relative degree of positivity on the Jurkat-NFAT-GFP assay as measured by the % GFP positive cells; +: relative degree of positivity on the Jurkat-NFAT-GFP assay as measured by the % GFP positive cells; 2+: relative degree of positivity on the Jurkat-NFAT-GFP assay as measured by the % GFP positive cells. Put shortly: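 Jurkat cells carrying an NFAT-driven GFP reporter and lentivirally expressing a SIR were cocultured with antigen-bearing target cells (E:T ~1:2) for about 4–18 h. GFP induction read by flow cytometry as % GFP+ cells, scored positive and graded (+/−, +, 2+) against parental Jurkat-NFAT-GFP cells.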

Setting [1] is: coculture with TF228.1.1.6 cells.

B1: 091616-X01 (protein)
chain: MALPVTALLLPLALLLHAARPELVLTQSPGTLSLSAGERATLSCRASQSVSSGSLAWYQQKPGQAPRLLIYGASTRATGIPDRFSGSGSGTDFTLTIGRLEPEDLAVYYCQQYGTSPYTFGQGTKLEILEEQKLISEEDLGSGEDLKNVFPPEVAVFEPSKAEIAHTQKATLVCLATGFYPDHVELSWWVNGKEVHSGVCTDPQPLKEQPALNDSRYCLSSRLRVSATFWQNPRNHFRCQVQFYGLSENDEWTQDRAKPVTQIVSAEAWGRADCGITSASYHQGVLSATILYEILLGKATLYAVLVSALVLMAMVKRKDSRGRAKRSGSGATNFSLLKQAGDVEENPGPTSMDWIWRILFLVGAATGAHSFELEQSGAEVKKPGSSVQVSCKASGGTFSMYGFNWVRQAPGHGLEWMGGIIPIFGTSNYAQKFRGRVTFTADQATSTAYMELTNLRSDDTAVYYCARDFGPDWEDGDSYDGSGRGFFDFWGQGTLVTVSSTREQKLISEEDGSGIQNPDPAVYQLRDSKSSDKSVCLFTDFDSQTNVSQSKDSDVYITDKCVLDMRSMDFKSNSAVAWSNKSDFACANAFNNSIIPEDTFFPSSDVPCDVKLVEKSFETDTNLNFQNLSVIGFRILLLKVAGFNLLMTLRLWSSRAKRSGSGVKQTLNFDLLKLAGDVESNPGPSRGHMTEYKPTVRLATRDDVPRAVRTLAAAFADYPATRHTVDPDRHIERVTELQELFLTRVGLDIGKVWVADDGAAVAVWTTPESVEAGAVFAEIGPRMAELSGSRLAAQQQMEGLLAPHRPKEPAWFLATVGVSPDHQGKGLGSAVVLPGVEAAERAGVPAFLETSAPRNLPFYERLGFTVTADVEVPEGPRTWCMTRKPGA
modifications: Synthetic Immune Receptor (SIR)
Turning to B1, the “NFAT-GFP ASSAY Positive Cell lines” value is listed as “HL2-3 (+/−)” (coculture with HL2-3 cells) and “TF228.1.1.6 (+),” under setting [1].

B2: 121416-D03 (protein)
chain: MALPVTALLLPLALLLHAARPLEQKLISEEDLGSGDRPDPAVYQLRDSKSSDKSVCLFTDFDSQTNVSQSKDSDVYITDKCVLDMRSMDFKSNSAVAWSNKSDFACANAFNNSIIPEDTFFPSPESSCDVKLVEKSFETDTNLNFQNLSVIGFRILLLKVAGFNLLMTLRLWSSSSRAKRSGSGVKQTLNFDLLKLAGDVESNPGPTSMALPVTALLLPLALLLHAARPDYIHVTQSPSSLSVSIGDRVTINCQTSQGVGSDLHWYQHKPGRAPKLLIHHASSVEDGVPSRFSGTGFHTSFNLTINDLQADDIGTYYCQVLQSFGRGSRLDTKGGGGSGGGGSGGGGSRAHLVQSGTAMKKPGASVRVSCQTSGYTFTAHILFWFRQAPGRGLEWVGWIKPQYGAVNFGGGFRDRVTLTRDVYREIAYMDIRGLKPDDTAVYYCARDRSYGDSSWALDAWGQGTTVVVSATRGKPIPNPLLGLDSTGSGEDLKNVFPPEVAVFEPSEAEISHTQKATLVCLATGFYPDHVELSWWVNGKEVHSGVCTDPQPLKEQPALNDSRYCLSSRLRVSATFWQNPRNHFRCQVQFYGLSENDEWTQDRAKPVTQIVSAEAWGRADCGFTSESYQQGVLSATILYEILLGKATLYAVLVSALVLMAMVKRKDSRGRAKRSGSGATNFSLLKQAGDVEENPGPSRGHMTEYKPTVRLATRDDVPRAVRTLAAAFADYPATRHTVDPDRHIERVTELQELFLTRVGLDIGKVWVADDGAAVAVWTTPESVEAGAVFAEIGPRMAELSGSRLAAQQQMEGLLAPHRPKEPAWFLATVGVSPDHQGKGLGSAVVLPGVEAAERAGVPAFLETSAPRNLPFYERLGFTVTADVEVPEGPRTWCMTRKPGA
modifications: Synthetic Immune Receptor (SIR)
As to B2, the “NFAT-GFP ASSAY Positive Cell lines” value (coculture with HL2-3 cells) is “HL2-3 (+/−),” and the “NFAT-GFP ASSAY Positive Cell lines” value under setting [1] is “TF228.1.1.6 (+)”.

B3: 121416-H05 (protein)
chain: MALPVTALLLPLALLLHAARPLEGKPIPNPLLGLDSTGSGEDLKNVFPPEVAVFEPSKAEIAHTQKATLVCLATGFYPDHVELSWWVNGKEVHSGVCTDPQPLKEQPALNDSRYCLSSRLRVSATFWQNPRNHFRCQVQFYGLSENDEWTQDRAKPVTQIVSAEAWGRADCGITSASYHQGVLSATILYEILLGKATLYAVLVSALVLMAMVKRKDSRGRAKRSGSGATNFSLLKQAGDVEENPGPTSMALPVTALLLPLALLLHAARPDYIHVTQSPSSLSVSIGDRVTINCQTSQGVGSDLHWYQHKPGRAPKLLIHHASSVEDGVPSRFSGTGFHTSFNLTINDLQADDIGTYYCQVLQSFGRGSRLDTKGGGGSGGGGSGGGGSRAHLVQSGTAMKKPGASVRVSCQTSGYTFTAHILFWFRQAPGRGLEWVGWIKPQYGAVNFGGGFRDRVTLTRDVYREIAYMDIRGLKPDDTAVYYCARDRSYGDSSWALDAWGQGTTVVVSATREQKLISEEDGSGIQNPDPAVYQLRDSKSSDKSVCLFTDFDSQTNVSQSKDSDVYITDKCVLDMRSMDFKSNSAVAWSNKSDFACANAFNNSIIPEDTFFPSSDVPCDVKLVEKSFETDTNLNFQNLSVIGFRILLLKVAGFNLLMTLRLWSSRAKRSGSGVKQTLNFDLLKLAGDVESNPGPSRGHMTEYKPTVRLATRDDVPRAVRTLAAAFADYPATRHTVDPDRHIERVTELQELFLTRVGLDIGKVWVADDGAAVAVWTTPESVEAGAVFAEIGPRMAELSGSRLAAQQQMEGLLAPHRPKEPAWFLATVGVSPDHQGKGLGSAVVLPGVEAAERAGVPAFLETSAPRNLPFYERLGFTVTADVEVPEGPRTWCMTRKPGA
modifications: Polynucleotide encoding a Synthetic Immune Receptor (SIR)
Take B3: the “NFAT-GFP ASSAY Positive Cell lines” value by setting is: (coculture with HL2-3 cells) “HL2-3 (+/−),”; under setting [1], “TF228.1.1.6 (+/−)”.

B4: 071417-W08 (protein)
chain: MALPVTALLLPLALLLHAARPLEGKPIPNPLLGLDSTGSGEDLKNVFPPEVAVFEPSKAEIAHTQKATLVCLATGFYPDHVELSWWVNGKEVHSGVCTDPQPLKEQPALNDSRYCLSSRLRVSATFWQNPRNHFRCQVQFYGLSENDEWTQDRAKPVTQIVSAEAWGRADCGITSASYHQGVLSATILYEILLGKATLYAVLVSALVLMAMVKRKDSRGRAKRSGSGATNFSLLKQAGDVEENPGPTSMALPVTALLLPLALLLHAARPDVMLTQTPLSLPVSLGDQASISCRSSQSILHSTGDTYLEWYLQKPGQSPKLLINKVSNRLSGVPDRFSGSGSGTDFTLKISRVEAEDLGVYYCFQGSHVPWTFGGGTKLEIKRADAAPTVSIFPGGGGSGGGGSGGGGSQVKLQQSGPSLVKPGASVKMSCKASGYTFTDFYMKWVKQSHGKSLEWIGDINPNIGDTFYNQKFKGKATLTVDKSSSTAYMQLNSLTSEDSAVYFCSVGYFDVWGAGTTVTVSSTREQKLISEEDGSGIQNPDPAVYQLRDSKSSDKSVCLFTDFDSQTNVSQSKDSDVYITDKCVLDMRSMDFKSNSAVAWSNKSDFACANAFNNSIIPEDTFFPSSDVPCDVKLVEKSFETDTNLNFQNLSVIGFRILLLKVAGFNLLMTLRLWSSRAKRSGSGVKQTLNFDLLKLAGDVESNPGPSRGHMTEYKPTVRLATRDDVPRAVRTLAAAFADYPATRHTVDPDRHIERVTELQELFLTRVGLDIGKVWVADDGAAVAVWTTPESVEAGAVFAEIGPRMAELSGSRLAAQQQMEGLLAPHRPKEPAWFLATVGVSPDHQGKGLGSAVVLPGVEAAERAGVPAFLETSAPRNLPFYERLGFTVTADVEVPEGPRTWCMTRKPGA
Take B4: the “NFAT-GFP ASSAY Positive Cell lines” value (coculture with U266 cells) is “U266 (+/−)”.

B5: 091616-Y01 (protein)
chain: MALPVTALLLPLALLLHAARPDIQMTQSPSSLSASVGDTVTITCQANGYLNWYQQRRGKAPKLLIYDGSKLERGVPSRFSGRRWGQEYNLTINNLQPEDIATYFCQVYEFVVPGTRLDLKRTVAAPLEEQKLISEEDLGSGEDLKNVFPPEVAVFEPSKAEIAHTQKATLVCLATGFYPDHVELSWWVNGKEVHSGVCTDPQPLKEQPALNDSRYCLSSRLRVSATFWQNPRNHFRCQVQFYGLSENDEWTQDRAKPVTQIVSAEAWGRADCGITSASYHQGVLSATILYEILLGKATLYAVLVSALVLMAMVKRKDSRGRAKRSGSGATNFSLLKQAGDVEENPGPTSMDWIWRILFLVGAATGAHSFEQVQLLQSGAAVTKPGASVRVSCEASGYNIRDYFIHWWRQAPGQGLQWVGWINPKTGQPNNPRQFQGRVSLTRHASWDFDTFSFYMDLKALRSDDTAVYFCARQRSDYWDFDVWGSGTQVTVSSASTKGPTREQKLISEEDGSGIQNPDPAVYQLRDSKSSDKSVCLFTDFDSQTNVSQSKDSDVYITDKCVLDMRSMDFKSNSAVAWSNKSDFACANAFNNSIIPEDTFFPSSDVPCDVKLVEKSFETDTNLNFQNLSVIGFRILLLKVAGFNLLMTLRLWSSRAKRSGSGVKQTLNFDLLKLAGDVESNPGPSRGHMTEYKPTVRLATRDDVPRAVRTLAAAFADYPATRHTVDPDRHIERVTELQELFLTRVGLDIGKVWVADDGAAVAVWTTPESVEAGAVFAEIGPRMAELSGSRLAAQQQMEGLLAPHRPKEPAWFLATVGVSPDHQGKGLGSAVVLPGVEAAERAGVPAFLETSAPRNLPFYERLGFTVTADVEVPEGPRTWCMTRKPGA
modifications: Synthetic Immune Receptor (SIR)
As to B5, the “NFAT-GFP ASSAY Positive Cell lines” value (coculture with HL2-3 cells) is reported as “HL2-3 (+/−)”.

B6: 042916-B04 (protein)
chain: MALPVTALLLPLALLLHAARPLEGKPIPNPLLGLDSTGSGEDLKNVFPPEVAVFEPSKAEIAHTQKATLVCLATGFYPDHVELSWWVNGKEVHSGVCTDPQPLKEQPALNDSRYCLSSRLRVSATFWQNPRNHFRCQVQFYGLSENDEWTQDRAKPVTQIVSAEAWGRADCGITSASYHQGVLSATILYEILLGKATLYAVLVSALVLMAMVKRKDSRGRAKRSGSGATNFSLLKQAGDVEENPGPTSTMALPVTALLLPLALLLHAARPDIQMTQSPSSLSASVGDRVTITCTASLSVSSTYLHWYQQKPGSSPKLWIYSTSNLASGVPSRFSGSGSGTSYTLTISSLQPEDFATYYCHQYHRSPLTFGGGTKVEIKRGGGGSGGGGSGGGGSEVQLVESGGGLVQPGGSLRLSCAASGFSLTKYGVHWVRQAPGKGLEWVGVKWAGGSTDYNSALMSRFTISKDNAKNSLYLQMNSLRAEDTAVYYCARDHRDAMDYWGQGTLVTVSSTREQKLISEEDGSGIQNPDPAVYQLRDSKSSDKSVCLFTDFDSQTNVSQSKDSDVYITDKCVLDMRSMDFKSNSAVAWSNKSDFACANAFNNSIIPEDTFFPSSDVPCDVKLVEKSFETDTNLNFQNLSVIGFRILLLKVAGFNLLMTLRLWSSRAKRSGSGVKQTLNFDLLKLAGDVESNPGPSRGHMTEYKPTVRLATRDDVPRAVRTLAAAFADYPATRHTVDPDRHIERVTELQELFLTRVGLDIGKVWVADDGAAVAVWTTPESVEAGAVFAEIGPRMAELSGSRLAAQQQMEGLLAPHRPKEPAWFLATVGVSPDHQGKGLGSAVVLPGVEAAERAGVPAFLETSAPRNLPFYERLGFTVTADVEVPEGPRTWCMTRKPGA
modifications: Synthetic Immune Receptor (SIR)
In the case of B6, the “NFAT-GFP ASSAY Positive Cell lines” value (coculture with U87-MG (U87MG) cells) is on record as “U87MG”.
